Reference: patent publication US20250222125A1, “Anti-FGFR2b Antibodies, Conjugates and Methods of Use” (BeiGene, Ltd., priority 2024, published 2025)
“Also recorded” adds a separate entry of the source.

How the values were obtained:
human FGFR2b [1] = target: T1, human FGFR2b (Homo sapiens, UniProt P21802); test: SPR affinity determination, human FGFR2b (Example 9); type: binding; details: for Kd: kd/ka
Description: (§1) For affinity determination, antibodies were captured by anti-human Fc antibodies, and used in the affinity assay based on surface plasmon resonance (SPR) technology. SPR signals were analyzed to calculate the association rates (ka) and dissociation rates (kd) by using the one-to-one Langmuir binding model (BIA Evaluation Software, GE Life Sciences). The equilibrium dissociation constant (KD) was calculated as the ratio of kd/ka. Rmax represents the maximal feasible SPR signal generated by an interaction between a ligand-analyte pair and is represented in response units (RU). BGAh9239 and BGA9179 show similar binding profiles to human FGFR2b and cyno FGFR2b, and are similar to their parental antibodies BGAm1823 and BGAm1371, respectively.

Human FGFR2c [2] = target: T2, Human FGFR2c (Homo sapiens, UniProt P21802); test: FACS binding on Expi293 cells, human FGFR2c (Example 10); details: for Emax (MFI): Expi293 cells overexpressing human FGFR2c
T2 sequence (P21802 22-821): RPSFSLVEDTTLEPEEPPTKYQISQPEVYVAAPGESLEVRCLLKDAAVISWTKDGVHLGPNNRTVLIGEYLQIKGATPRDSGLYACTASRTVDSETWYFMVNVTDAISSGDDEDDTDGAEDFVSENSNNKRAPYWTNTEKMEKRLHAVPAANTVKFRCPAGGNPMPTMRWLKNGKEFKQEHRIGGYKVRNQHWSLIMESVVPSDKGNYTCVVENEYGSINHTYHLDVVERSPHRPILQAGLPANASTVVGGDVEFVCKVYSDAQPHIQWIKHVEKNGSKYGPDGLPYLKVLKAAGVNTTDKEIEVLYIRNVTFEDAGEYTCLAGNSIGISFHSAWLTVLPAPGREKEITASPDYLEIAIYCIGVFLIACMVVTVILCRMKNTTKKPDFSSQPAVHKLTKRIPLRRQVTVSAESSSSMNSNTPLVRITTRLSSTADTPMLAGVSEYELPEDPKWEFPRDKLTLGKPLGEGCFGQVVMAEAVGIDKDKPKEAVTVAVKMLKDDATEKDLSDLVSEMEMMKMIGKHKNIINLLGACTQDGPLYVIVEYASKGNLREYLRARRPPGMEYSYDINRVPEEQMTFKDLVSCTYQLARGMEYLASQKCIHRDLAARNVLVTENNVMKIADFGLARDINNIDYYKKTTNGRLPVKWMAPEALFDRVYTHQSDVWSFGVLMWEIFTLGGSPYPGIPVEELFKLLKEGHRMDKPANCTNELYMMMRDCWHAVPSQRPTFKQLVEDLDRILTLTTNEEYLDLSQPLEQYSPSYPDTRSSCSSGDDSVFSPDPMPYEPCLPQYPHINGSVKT
Description: (§2) To evaluate the binding activity of anti-FGFR2b antibodies to native FGFR2b on living cells, Expi293 cells were engineered to overexpress human FGFR2b, cyno FGFR2b, mouse FGFR2b, or human FGFR2c. Expi293 cells expressing antigens were seeded in 96-well plates, and were incubated with serially diluted anti-FGFR2b antibodies. Goat anti-human IgG [Alexa Fluor® 647] […] The change of mean fluorescent intensity (MFI) of humanized candidates BGAh9239 and BGAh9179 was measured by flow cytometry. EC50 values for dose-dependent binding to native human FGFR2b, cyno FGFR2b, mouse FGFR2b, and human FGFR2c were determined using sigmoidal dose-response curves of nonlinear fit from GraphPad Prism™.

human FGFR2b [3] = target: T1, human FGFR2b; test: ELISA binding to recombinant human FGFR2b (Example 11)
293T blank cells = test: FACS non-specific binding, parental 293T blank cells (Example 4)
Description: (§3) The binding affinity and specificity of purified anti-FGFR2b antibodies were determined by ELISA and FACS. […] After incubation and washing, the plates were developed with HRP substrate and absorbance was measured. […] After washing twice with FACS buffer, diluted Alexa Fluor 647 goat anti-human IgG secondary antibody was added and incubated with cells for 30 minutes at 4° C. in the dark. After washing twice with FACS buffer, cells were resuspended with FACS buffer and read using a Becton Dickinson LSR FortessaTM cell analyzer. Non-specific binding of these antibodies was evaluated by FACS binding against parental 293T blank cells. Titration curves were generated using a sigmoidal dose-response of nonlinear fit from GraphPadTM Software by Dotmatics.

Human FGFR2c [4] = target: T2, Human FGFR2c; test: ELISA binding to recombinant human FGFR2c (Example 11); details: for Emax (A450): human FGFR2c; for binding to human FGFR2c: in words
Mouse FGFR2b = target: T3, Mouse FGFR2b (Mus musculus, UniProt P21803); test: FACS binding on Expi293 cells, mouse FGFR2b (Example 10); details: Expi293 cells overexpressing mouse FGFR2b
T3 construct: expressed in transfected cells; host or cells: Expi293
T3 sequence (P21803 22-707 isoform P21803-2 limits assumed): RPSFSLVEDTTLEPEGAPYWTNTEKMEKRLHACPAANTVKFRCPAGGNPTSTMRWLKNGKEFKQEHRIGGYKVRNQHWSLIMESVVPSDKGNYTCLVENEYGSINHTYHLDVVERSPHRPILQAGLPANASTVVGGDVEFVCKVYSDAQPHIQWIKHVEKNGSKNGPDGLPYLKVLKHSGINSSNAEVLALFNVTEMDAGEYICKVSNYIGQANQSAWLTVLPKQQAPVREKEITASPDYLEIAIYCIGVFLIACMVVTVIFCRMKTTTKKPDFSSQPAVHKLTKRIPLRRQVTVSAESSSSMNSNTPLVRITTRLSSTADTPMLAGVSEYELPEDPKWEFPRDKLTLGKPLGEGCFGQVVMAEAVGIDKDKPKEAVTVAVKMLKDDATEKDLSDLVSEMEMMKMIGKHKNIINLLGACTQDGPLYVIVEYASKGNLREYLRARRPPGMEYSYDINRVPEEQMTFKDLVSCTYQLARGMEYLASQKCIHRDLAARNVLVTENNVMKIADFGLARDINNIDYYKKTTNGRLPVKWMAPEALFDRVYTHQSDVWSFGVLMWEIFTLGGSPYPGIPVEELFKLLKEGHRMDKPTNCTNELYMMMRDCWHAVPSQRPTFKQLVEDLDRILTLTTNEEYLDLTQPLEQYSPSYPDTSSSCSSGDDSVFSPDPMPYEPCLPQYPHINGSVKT
Description: as §2

Murine FGFR2b OE cells = target: T4, Murine FGFR2b OE cells (Mus musculus, UniProt P21803); test: FACS cellular binding, murine FGFR2b OE cells (Example 4)
T4 construct: expressed in transfected cells; host or cells: 293T
T4 sequence (P21803 22-707 isoform P21803-2 limits assumed): as above
Description: as §3

[5] = target: T5, soluble human FGFR2b proteins (Homo sapiens, UniProt P21802); test: SPR binding kinetics (Biacore 8K, Example 5); details: room temperature
T5 construct: soluble human FGFR2b proteins (his tag, in-house generated); His tag; made in house
T5 sequence (P21802 22-378 isoform P21802-3 limits assumed): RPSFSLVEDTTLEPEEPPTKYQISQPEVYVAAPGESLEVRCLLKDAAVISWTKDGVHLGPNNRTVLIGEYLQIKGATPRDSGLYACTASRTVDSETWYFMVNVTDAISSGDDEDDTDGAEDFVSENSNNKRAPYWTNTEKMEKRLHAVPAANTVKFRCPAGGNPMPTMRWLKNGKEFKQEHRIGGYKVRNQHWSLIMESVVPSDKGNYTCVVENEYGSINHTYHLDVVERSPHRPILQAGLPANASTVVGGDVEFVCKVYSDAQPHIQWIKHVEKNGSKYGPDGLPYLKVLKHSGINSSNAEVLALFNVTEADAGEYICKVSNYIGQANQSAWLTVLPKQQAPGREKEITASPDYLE
Description: The binding affinity and kinetics of purified anti-FGFR2b antibodies were determined by surface plasmon resonance (Biacore 8K, GE Life Sciences) at room temperature. Briefly, mouse anti-human IgG Fc antibody was immobilized via amine coupling onto a activated CM5 biosensor chip (Cat. No. BR100530, GE Life Sciences). Purified monoclonal antibody candidates were flowed over the chip surface and captured by anti-human IgG antibody. Then a serial dilution of soluble human FGFR2b proteins (his tag, in-house generated) were injected over the antibodies captured surface and changes in surface plasmon resonance signals were analyzed to calculate the association rates (kon) and dissociation rates (koff) by using the one-to-one Langmuir binding model (BIA Evaluation Software, GE Life Sciences). The equilibrium dissociation constant (KD) was calculated as the ratio koff/kon.

Human FGFR2c OE cells = Human FGFR2c OE cells (Homo sapiens, UniProt P21802); test: FACS cellular binding, human FGFR2c OE cells (Example 4)
Chain of Human FGFR2c OE cells (P21802 22-821): as the sequence (P21802 22-821) above
Description: as §3

Cyno FGFR2b [6] = test: ELISA binding to recombinant cyno FGFR2b (Example 11)
human FGFR2b [7] = target: T1, human FGFR2b; test: FACS binding to native FGFR2b on Expi293 cells, human FGFR2b (Example 10); details: Expi293 cells overexpressing human FGFR2b
Description: as §2

Human FGFR2c [8] = target: T2, Human FGFR2c; test: ELISA protein binding to human FGFR2c (Example 4); details: coated protein
Description: as §3

Cyno FGFR2b [9] = test: SPR affinity determination, cyno FGFR2b (Example 9); type: binding
Description: as §1

Human FGFR2b OE cells = target: T6, Human FGFR2b OE cells (Homo sapiens, UniProt P21802); test: FACS cellular binding, human FGFR2b OE cells (Example 4)
T6 construct: expressed in transfected cells; host or cells: 293T
T6 sequence (P21802 22-822 isoform P21802-3 limits assumed): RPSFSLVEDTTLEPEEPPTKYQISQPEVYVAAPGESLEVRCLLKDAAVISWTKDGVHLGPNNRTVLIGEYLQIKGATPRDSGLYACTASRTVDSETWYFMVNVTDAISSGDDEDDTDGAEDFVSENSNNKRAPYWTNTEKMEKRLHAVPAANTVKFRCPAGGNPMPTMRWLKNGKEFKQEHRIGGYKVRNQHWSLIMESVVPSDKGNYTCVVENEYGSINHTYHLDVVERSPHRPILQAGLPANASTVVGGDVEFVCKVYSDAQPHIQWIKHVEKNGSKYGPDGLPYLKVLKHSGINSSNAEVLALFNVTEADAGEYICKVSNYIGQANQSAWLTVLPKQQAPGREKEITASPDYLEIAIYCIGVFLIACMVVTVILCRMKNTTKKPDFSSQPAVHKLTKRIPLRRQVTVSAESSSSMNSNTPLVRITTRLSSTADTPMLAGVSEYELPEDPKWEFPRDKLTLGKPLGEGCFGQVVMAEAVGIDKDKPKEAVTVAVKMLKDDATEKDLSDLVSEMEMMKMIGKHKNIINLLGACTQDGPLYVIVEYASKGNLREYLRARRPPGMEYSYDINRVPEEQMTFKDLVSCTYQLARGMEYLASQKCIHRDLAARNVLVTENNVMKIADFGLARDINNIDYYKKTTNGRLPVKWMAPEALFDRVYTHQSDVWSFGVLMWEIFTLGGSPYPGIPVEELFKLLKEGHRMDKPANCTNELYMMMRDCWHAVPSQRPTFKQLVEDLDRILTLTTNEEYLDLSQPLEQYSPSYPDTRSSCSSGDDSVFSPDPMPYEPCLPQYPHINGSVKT
Description: as §3

human FGFR2b [10] = target: T1, human FGFR2b; test: ELISA protein binding to human FGFR2b (Example 4); details: coated protein
Description: as §3

BaF3_hFGFR2b OE cells = test: Ligand-induced proliferation inhibition assay in BaF3_hFGFR2b OE cells; type: cell-based; details: antibody 10 μg/ml, heparin 5 μg/ml, 72 hours
Description: The inhibition activity of antibody on ligand-induced cell proliferation was evaluated in an FGFR2b engineered BaF3 cell line system (BaF3_hFGFR2b OE). BaF3 cells are dependent on interleukin-3 (IL-3) for growth. The BaF3 system allows for testing of kinases and kinase inhibitors. Some protein kinases can render BaF3 cells to be independent of IL-3, whereas kinase inhibitors antagonize this effect. Cells were seeded in 96-well plates at 30,000 cells/well in RPMI-1640 medium containing 10% fetal bovine serum. Anti-FGFR2b antibodies at a concentration of 10 μg/ml were added to the assay plates. Recombinant human FGF7 or FGF10 protein (40 ng/ml) in the presence of heparin (5 μg/ml) was added to the assay plates. The plates were incubated at 37° C., 5% CO2, 95% humidity in an incubator for 72 hours. Following incubation, 50 μl Cell Titer Glo reagent was added to each well and the plates were mixed for 1 min and then incubated at RT for 10 min. Luminescence signals were detected and recorded.
The Ba/F3 system is used to investigate downstream oncogenic signaling pathways and the susceptibility of driver variants to therapeutics. Driver-addicted Ba/F3 cells die when the driver-engaged signaling pathway is inhibited, and this effect can be rescued by re-introduction of […].
FIGS. 6 and 7 show the results of Ba/F3 proliferation assays. The net growth on Ba/F3 cells overexpressing FGFR2b is reported after treatment with anti-FGFR2b antibodies of the present disclosure. Normal Ba/F3 cells die shortly after withdrawal of exogenous […]. […] Comparator BGA2311 binds at the N-terminus and is not considered to be a ligand blocker. Thus, BGAm1371 may partially block the FGFR2b signaling pathway, such as the signaling pathway mediated by FGF7.

[11] = system: phosphorylated FGFR in SNU-16 cells; test: Inhibition of FGFR2 signaling in SNU-16 cells (Western blot of pFGFR); type: cell-based; details: antibody 10 μg/ml, FGF7 10 ng/ml, 2 hours
Description: Inhibition of the FGFR2 signaling pathway by the humanized antibodies was investigated. SNU-16 cells were grown in RPMI-1640 medium with 10% FBS, collected and washed twice with free medium and then seeded in 12-well plates at 1.5E6 cells/well in serum-free RPMI-1640. The plates were incubated at 37° C., 5% CO2, and 95% humidity in an incubator overnight. Anti-FGFR2b antibodies at a concentration of 10 μg/ml were added to the assay plates. Recombinant human FGF7 or FGF10 protein (10 ng/ml) in the presence of heparin (5 μg/ml) was added to the assay plates. The plates were incubated in a 37° C., 5% CO2, 95% humidity incubator for 2 hours. Following 2 hours incubation, cells were collected and washed twice with cold PBS. NP40 lysis buffer containing 1×PMSF and 1× Protease plus phosphatase inhibitors were added to the cell pellets. The mixture was pipetted up and down to suspend the pellet. The mixture was inverted gently and each placed for 10 minutes on ice, for a total of 30 minutes. The mixture was centrifuged at 12000× rpm for 10 minutes to pellet the cell debris. The supernatant was transferred to a new tube to quantify total protein concentration by BCA Kit. The protein samples were then split and stored at −80° C. for further Western blotting to detect the expression of pFGFR and total FGFR2.
Western blotting procedure: The completely thawed protein samples were mixed with 4×SDS loading buffer and were heated for 10 min at 37° C. Then the mixtures were centrifuged at ˜3500×rpm for 5 min. Equal amounts of proteins were loaded into an SDS-PAGE gel, whereafter proteins were transferred to PVDF membranes using iBlot. The membranes were then subjected to Western blotting analysis, focusing on phosphorylated FGFR and total FGFR2.

T1 sequence (P21802 22-822 isoform P21802-3 limits assumed): as above

B1: BGAh9239: humanized anti-FGFR2b IgG1 antibody from murine BGAm1823; VH SEQ ID NO: 9, VL SEQ ID NO: 10 (antibody, V domains shown)
VH: QVQLVQSGAEVKKPGSSVKVSCKASGYTFSIYWLNWVRQAPGQGLEWMGQIYPENADTNYSGKFKGRVTITADKSTSTAYMELSSLRSEDTAVYFCARGGFDYWGQGTLVTVSS
VL: DIQMTQSPSSLSASVGDRVTITCRASENIYSNLAWYQQKPGKAPKLLIYTATNLAEGVPSRFSGSGSGTDFTLTISSLQPEDFATYYCQHFYGILYTFGQGTRLEIK
modifications: Synthetic: VH AA; Synthetic: VL AA
- Rmax (human FGFR2b [1]): 80.9 RU
- ka (human FGFR2b [1]): 8.05E+04 M^−1S^−1
- kd (human FGFR2b [1]): 3.00E−03 S^−1
- Kd (human FGFR2b [1]): 37.3 nM
- Emax (MFI) (Human FGFR2c [2]): 23848 MFI
- binding to native human FGFR2c (Human FGFR2c [2]; living Expi293 cells, in words): no detectable binding
- EC50 (human FGFR2b [3]): 0.031 nM
- Emax (A450) (human FGFR2b [3]): 2.945 A450
- 293T blank cells binding Emax (293T blank cells): 31 MFI
- Emax (A450) (Human FGFR2c [4]): 0.130 A450
- binding to human FGFR2c (Human FGFR2c [4]): no detectable binding
- EC50 (Mouse FGFR2b): 2.67 nM
- Emax (MFI) (Mouse FGFR2b): 5098781 MFI
- EC50 (Murine FGFR2b OE cells): 1.59 nM
- ka ([5]; antibody captured): 76600 M⁻¹ s⁻¹
- kd ([5]; antibody captured): 0.00189 s⁻¹
- Kd ([5]; koff/kon): 24.7 nM
- Human FGFR2c OE cells binding Emax (Human FGFR2c OE cells): 36 MFI
- Emax (A450) (Cyno FGFR2b [6]): 2.931 A450
- EC50 (human FGFR2b [7]): 2.4 nM
- Emax (MFI) (human FGFR2b [7]): 3082608 MFI
- Human FGFR2c binding Emax(OD450) (Human FGFR2c [8]): 0.07 OD450
- ka (Cyno FGFR2b [9]): 7.99E+04 M^−1S^−1
- kd (Cyno FGFR2b [9]): 2.72E−03 S^−1
- EC50 (Human FGFR2b OE cells): 1.84 nM
- EC50 (human FGFR2b [10]): 0.26 nM
- Human FGFR2b binding Emax(OD450) (human FGFR2b [10]): 3.37 OD450

B2: BGAm1371: parental murine anti-FGFR2b antibody (parental mouse clone); VH SEQ ID NO: 32, VL SEQ ID NO: 34 (antibody, V domains shown)
VH: QVQLKQSGAELVKPGASVKLSCTASGFNIKDTYIHWVKQRPEQGLEWIGRIDPANGNTMFASEFQGKATITAYTSSNTAYMQLSSLTSGDTAVYYCARSKIHYDYDEGFAYWGQGTLVTVSS
VL: NIVLTQSPPSLAVSLGQRATVSCRASESVDDYGYSFLHWYQQKPGQPPKLLIYRASNLESGIPARFSGSGSRTDFTLTINPVETDDVATYYCQQSNQNPRTFGGGTKLEIK
modifications: Synthetic: VH AA; Synthetic: VL AA
- Rmax (human FGFR2b [1]): 96.3 RU
- ka (human FGFR2b [1]): 7.29E+04 M^−1S^−1
- kd (human FGFR2b [1]): 1.19E−03 S^−1
- Kd (human FGFR2b [1]): 16.3 nM
- Emax (MFI) (Human FGFR2c [2]): 23051 MFI
- EC50 (human FGFR2b [3]): 0.0309 nM
- Emax (A450) (human FGFR2b [3]): 3.013 A450
- 293T blank cells binding Emax (293T blank cells): 28 MFI
- Emax (A450) (Human FGFR2c [4]): 0.204 A450
- binding to human FGFR2c (Human FGFR2c [4]): no detectable binding
- inhibition of FGF7-induced BaF3_hFGFR2b cell proliferation (BaF3_hFGFR2b OE cells; FGF7 40 ng/ml): ten times less potent compared to BGA1421 and BGAm1823; also recorded: weaker blocking than comparator BGA1421
- inhibition of FGF10-induced BaF3_hFGFR2b cell proliferation (BaF3_hFGFR2b OE cells; FGF10 40 ng/ml): did not inhibit the net growth
- EC50 (Mouse FGFR2b): 3.5 nM
- Emax (MFI) (Mouse FGFR2b): 4984598 MFI
- FGF7-induced FGFR phosphorylation [11]: weakly inhibited
- EC50 (Murine FGFR2b OE cells): 1.78 nM
- Human FGFR2c OE cells binding Emax (Human FGFR2c OE cells): 33 MFI
- Emax (A450) (Cyno FGFR2b [6]): 3.018 A450
- EC50 (human FGFR2b [7]): 1.5 nM
- Emax (MFI) (human FGFR2b [7]): 3052664 MFI
- Human FGFR2c binding Emax(OD450) (Human FGFR2c [8]): 0.07 OD450
- ka (Cyno FGFR2b [9]): 7.97E+04 M^−1S^−1
- kd (Cyno FGFR2b [9]): 1.25E−03 S^−1
- EC50 (Human FGFR2b OE cells): 1.25 nM
- EC50 (human FGFR2b [10]): 0.19 nM
- Human FGFR2b binding Emax(OD450) (human FGFR2b [10]): 3.35 OD450
